Results taken from US20210139598A1 (ROCKEFELLER UNIVERSITY, published 2021).

Legend:
[1] = target: T1, human FcγRIIB, soluble ectodomain (human, UniProt P31994 43-217); assay: fold change in hFcγRIIB binding affinity against wild type IgG1, from SPR
T1 construct: extracellular domain; Recombinant; also called hFcγRIIB; huFcγRIIB
T1 sequence (looked up): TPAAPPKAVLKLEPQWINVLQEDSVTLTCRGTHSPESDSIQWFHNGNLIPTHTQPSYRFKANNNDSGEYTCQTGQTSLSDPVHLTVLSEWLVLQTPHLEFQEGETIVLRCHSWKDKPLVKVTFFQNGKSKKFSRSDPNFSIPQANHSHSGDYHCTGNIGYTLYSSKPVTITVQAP
Experimental: (§1) All experiments were performed with a Biacore T100 surface plasmon resonance (SPR) system (Biacore, GE Healthcare), as previously described (Bournazos, et al., 2014, Cell 158, 1243-1253). Briefly, experiments were performed at 25_C in HBS-EP+ buffer (10 mM HEPES, pH 7.4; 150 mM NaCl; 3.4 mM EDTA; 0.005% (v/v) surfactant P20). […] Background binding to blank immobilized flow cells was subtracted and affinity constants were calculated using BIAcore T100 evaluation software (GE Healthcare) using the 1:1 Langmuir binding model.

[2] = target: T1, human FcγRIIB, soluble ectodomain; assay: SPR (Biacore T100), 2141 Fc variant and soluble FcγR ectodomain
Experimental: as §1

[3] = target: T2, human FcγRI, soluble ectodomain (human, UniProt P12314 16-292); assay: as above
T2 construct: extracellular domain; Recombinant; also called hFcγRI; huFcγRI
T2 sequence (P12314 16-292): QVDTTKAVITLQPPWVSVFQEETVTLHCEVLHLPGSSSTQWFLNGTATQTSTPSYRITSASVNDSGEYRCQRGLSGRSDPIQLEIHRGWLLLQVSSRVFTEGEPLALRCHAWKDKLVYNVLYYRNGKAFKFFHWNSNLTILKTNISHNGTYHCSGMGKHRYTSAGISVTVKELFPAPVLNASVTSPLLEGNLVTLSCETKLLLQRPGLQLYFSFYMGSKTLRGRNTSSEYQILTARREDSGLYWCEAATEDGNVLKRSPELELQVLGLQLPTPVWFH
Experimental: as §1

[4] = target: T3, human FcγRIIA R131 allele, soluble ectodomain (human, UniProt P12318 34-217); assay: as above
T3 construct: extracellular domain; also called hFcγRIIA^R131; hFcγRIIA
T3 sequence (looked up): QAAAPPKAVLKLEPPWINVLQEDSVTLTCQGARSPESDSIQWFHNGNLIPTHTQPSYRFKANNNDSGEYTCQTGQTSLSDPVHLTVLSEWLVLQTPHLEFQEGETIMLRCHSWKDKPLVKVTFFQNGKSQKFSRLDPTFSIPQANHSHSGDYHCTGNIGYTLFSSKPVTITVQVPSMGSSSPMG
Experimental: as §1

[5] = target: T4, human FcγRIIIA F158 allele, soluble ectodomain (human, UniProt P08637 17-208); assay: as above
T4 construct: extracellular domain; also called hFcγRIIIA^F158; huFcγRIIIA
T4 sequence (P08637 17-208): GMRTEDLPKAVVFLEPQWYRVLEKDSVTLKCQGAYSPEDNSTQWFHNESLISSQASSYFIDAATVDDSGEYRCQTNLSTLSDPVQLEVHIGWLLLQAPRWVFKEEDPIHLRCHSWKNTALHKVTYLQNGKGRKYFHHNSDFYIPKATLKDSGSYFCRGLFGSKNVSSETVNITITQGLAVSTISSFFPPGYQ
Experimental: as §1

[6] = target: T3, human FcγRIIA R131 allele, soluble …; assay: ratio of the binding affinities to hFcγRIIA R131 and to hFcγRIIB, from SPR
Experimental: as §1

[7] = target: T5, human CD40, soluble ectodomain / recombinant extracellular domain (human, UniProt P25942 21-193); assay: SPR (Biacore T100), IgG immobilised, soluble CD40 injected
T5 construct: also called hCD40; huCD40
T5 sequence (P25942 21-193): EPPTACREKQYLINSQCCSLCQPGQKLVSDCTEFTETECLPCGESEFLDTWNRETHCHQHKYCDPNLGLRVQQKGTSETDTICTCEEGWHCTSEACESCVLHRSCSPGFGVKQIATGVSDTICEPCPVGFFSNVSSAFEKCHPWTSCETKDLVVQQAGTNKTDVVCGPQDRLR
Experimental: as §1

[8] = target: T3, human FcγRIIA R131 allele, soluble …; assay: graded summary table of FcγR binding affinity profiles (SPR, see Table 4); the sheet prints no allele, R131 taken from Table 4
Experimental: as §1

B1: 2141-IgG1 (anti-human CD40 Ab clone 21.4.1, wild type human IgG1) (antibody)
heavy: not shown
light: DIQMTQSPSSVSASVGDRVTITCRASQGIYSWLAWYQQKPGKAPNLLIYTASTLQSGVPSRFSGSGSGTDFTLTISSLQPEDFATYYCQQANIFPLTFGGGTKVEIKRTVAAPSVFIFPPSDEQLKSGTASVVCLLNNFYPREAKVQWKVDNALQSGNSQESVTEQDSKDSTYSLSSTLTLSKADYEKHKVYACEVTHQGLSSPVTKSFNRGEC
notes: Made in HEK293T cells; also called IgG1 wild type
In the case of B1, the FcγRIIB -fold [1] is reported as 1 fold, the “Fold (KD(IgG1)/KD(Fc variant))” value [2] is reported as 1 fold and the “Fold (KD(IgG1)/KD(Fc variant))” value [3] is reported as 1 fold. For the same binder, the “Fold (KD(IgG1)/KD(Fc variant))” value [4] was 1 fold, the “Fold (KD(IgG1)/KD(Fc variant))” value [5] was 1 fold and the IIA/IIB [6] was 2.7. It also gave a Kd [7] of 0.0199 µM, a koff [7] of 0.00119 s⁻¹ and a kon [7] of 59700 M⁻¹ s⁻¹.

B2: 2141-IgG2 (CP-870,893, human IgG2) (antibody)
heavy: not shown
light: B1 light
For B2, the Kd [4] was less than 10 µM, the Kd [5] was less than 10 µM and the Kd [7] was 0.031 µM. For the same binder, the koff [7] was 0.00108 s⁻¹ and the kon [7] was 34900 M⁻¹ s⁻¹.

B3: 2141-IgG2 C127S (antibody)
heavy: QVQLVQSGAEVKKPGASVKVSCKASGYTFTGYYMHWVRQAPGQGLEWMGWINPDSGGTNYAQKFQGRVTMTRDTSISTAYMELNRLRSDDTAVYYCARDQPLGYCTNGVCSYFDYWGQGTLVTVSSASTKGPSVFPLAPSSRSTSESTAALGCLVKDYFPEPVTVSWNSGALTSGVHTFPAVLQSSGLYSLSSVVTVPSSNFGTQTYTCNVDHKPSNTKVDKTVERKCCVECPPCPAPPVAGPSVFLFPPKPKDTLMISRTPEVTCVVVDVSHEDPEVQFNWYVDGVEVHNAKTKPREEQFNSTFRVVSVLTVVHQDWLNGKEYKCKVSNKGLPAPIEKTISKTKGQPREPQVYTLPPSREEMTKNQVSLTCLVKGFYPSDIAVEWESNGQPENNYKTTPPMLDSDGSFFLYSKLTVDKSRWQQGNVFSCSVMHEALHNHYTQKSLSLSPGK
light: B1 light
notes: also called IgG2-B
B3 gave a Kd [7] of 0.0309 µM, a koff [7] of 0.0011 s⁻¹ and a kon [7] of 35500 M⁻¹ s⁻¹.

B4: 2141-IgG1 S267E/L328F (antibody)
heavy: not shown
light: B1 light
notes: also called SELF
B4 gave a Kd [4] of 0.0177 µM, a Kd [7] of 0.0274 µM and a koff [7] of 0.00116 s⁻¹. For the same binder, the kon [7] was 42300 M⁻¹ s⁻¹.

B5: 2141-IgG1 G237D/P238D/H268D/P271G/A330R (V11) (antibody)
heavy: not shown
light: B1 light
notes: also called 2141-V11
B5 was tested, and the Kd [7] was 0.0274 µM, the koff [7] was 0.00112 s⁻¹ and the kon [7] was 41000 M⁻¹ s⁻¹.

B6: 2141-IgG1 N297A (antibody)
heavy: not shown
light: B1 light
notes: also called N297A Fc-null
B6 was tested, and the binding result [8] was “no binding”, the Kd [7] was 0.0222 µM and the koff [7] was 0.00116 s⁻¹. It also gave a kon [7] of 52300 M⁻¹ s⁻¹.

B7: 2141-IgG1 S267E (antibody)
heavy: not shown
light: B1 light
notes: also called SE
B7 gave a Kd [7] of 0.0231 µM, a koff [7] of 0.00115 s⁻¹ and a kon [7] of 50000 M⁻¹ s⁻¹.

B8: 2141-IgG2 C232S (antibody)
heavy: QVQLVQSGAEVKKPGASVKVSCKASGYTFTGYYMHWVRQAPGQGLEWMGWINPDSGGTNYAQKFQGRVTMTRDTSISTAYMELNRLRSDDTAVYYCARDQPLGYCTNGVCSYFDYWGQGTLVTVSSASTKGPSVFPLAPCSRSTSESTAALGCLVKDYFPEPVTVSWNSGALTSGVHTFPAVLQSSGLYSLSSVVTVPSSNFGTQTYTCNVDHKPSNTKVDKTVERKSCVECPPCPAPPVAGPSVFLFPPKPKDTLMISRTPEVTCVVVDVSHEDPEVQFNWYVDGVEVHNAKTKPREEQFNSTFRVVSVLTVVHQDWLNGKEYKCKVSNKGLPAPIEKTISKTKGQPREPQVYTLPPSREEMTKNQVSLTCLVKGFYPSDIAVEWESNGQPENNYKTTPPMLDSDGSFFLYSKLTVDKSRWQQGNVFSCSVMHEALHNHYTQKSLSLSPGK
light: B1 light
notes: also called IgG2-C232S (IgG2A); IgG2-A
Work on B8 yielded a Kd [7] of 0.0309 µM, a koff [7] of 0.00109 s⁻¹ and a kon [7] of 35200 M⁻¹ s⁻¹.

B9: 2141-IgG1 G237D/P238D/P271G/A330R (V9) (antibody)
heavy: not shown
light: B1 light
In the case of B9, the Kd [3] is reported as 0.578 µM, the Kd [7] is reported as 0.0268 µM and the koff [7] is reported as 0.00113 s⁻¹. The kon [7] was 42200 M⁻¹ s⁻¹.
